Test results as given in article PMC10745484.

Molecular target: recombinant Fe-S cluster assembly ATP-binding protein (SufC) (Streptococcus pneumoniae strain D39)
Assay: SPR; Biacore X100; rSufC immobilised on a CM5 chip (1000 RU); plasminogen or BSA flowed at 6.25 to 100 nM, 25 °C, 100 mM HEPES pH 7.4, 150 mM NaCl, 3 mM EDTA, 0.005% surfactant P20; apparent constants

Substance: plasminogen from human plasma (natural protein)
- Kd: 79.5 nM
- koff: 0.00156 s⁻¹
- kon: 19600 M⁻¹ s⁻¹
